Source: US20060057146A1

Columns and labels:
[1] = target: recombinant ED-B domain of fibronectin (UniProt P02751); test: 125I-labelled antibody on ED-B Sepharose column, bound against unbound radioactivity, before injection
[2] = target: recombinant ED-B domain of fibronectin (UniProt P02751); test: 125I-labelled antibody in mouse plasma 6 h after i.v. injection, ED-B Sepharose column
[3] = target: recombinant ED-B domain of fibronectin (UniProt P02751); test: 125I-labelled antibody in mouse plasma 3 h after i.v. injection, ED-B Sepharose column
[4] = target: recombinant ED-B domain of fibronectin (UniProt P02751); test: 125I-labelled antibody in mouse plasma 24 h after i.v. injection, ED-B Sepharose column
[5] = target: recombinant ED-B domain of fibronectin (UniProt P02751); test: 125I-labelled antibody in mouse plasma 72 h after i.v. injection, ED-B Sepharose column
[6] = target: recombinant ED-B domain of fibronectin (UniProt P02751); test: 125I-labelled antibody in mouse plasma 144 h after i.v. injection, ED-B Sepharose column
[7] = target: recombinant ED-B domain of fibronectin (UniProt P02751); test: 125I-labelled antibody in mouse plasma 48 h after i.v. injection, ED-B Sepharose column

scFv(L19), sequence (VH): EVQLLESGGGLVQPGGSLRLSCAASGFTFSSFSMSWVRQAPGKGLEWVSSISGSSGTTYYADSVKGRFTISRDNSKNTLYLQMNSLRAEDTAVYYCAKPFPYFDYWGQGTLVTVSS
scFv(L19), sequence (VL): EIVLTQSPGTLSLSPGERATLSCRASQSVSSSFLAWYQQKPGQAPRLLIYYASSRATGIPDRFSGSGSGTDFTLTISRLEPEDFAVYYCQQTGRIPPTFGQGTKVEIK
UniProt P02751, sequence (P02751 1266-1356 limits assumed): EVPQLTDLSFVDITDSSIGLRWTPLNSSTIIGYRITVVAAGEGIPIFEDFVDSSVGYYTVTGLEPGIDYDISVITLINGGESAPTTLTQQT

immunoreactivity (percentage bound to ED-B Sepharose) [1]	Immunoreactivity (I), % of the value before i.v. injection [2]	Immunoreactivity (I), % of the value before i.v. injection [3]	Immunoreactivity (I), % of the value before i.v. injection [4]	Immunoreactivity (I), % of the value before i.v. injection [5]	Immunoreactivity (I), % of the value before i.v. injection [6]	Immunoreactivity (I), % of the value before i.v. injection [7]	Substance
> 90%	–	–	–	–	–	–	L19 small immunoprotein (L19-SIP) (from UniProt P01854 319-426)
> 90%	32%	36%	27%	9%	4%	14%	scFv(L19)
